Source: patent publication US20110044985A1

Target: Aβ1-40
Test: ELISA, nonbiotinylated peptide on plate

Aβ1-40, sequence (peptide, as listed by the source): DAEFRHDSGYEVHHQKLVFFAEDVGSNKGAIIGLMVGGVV

Row | A450 ELISA | Binder
1 | 0.23 A450 | 6G heavy chain mutant variant 7D (N101C) (antibody, V domains shown) VH: QVQLVQSGAEVKKPGASVKVSCKASGYTFTTYAIHWVRQAPGQGLEWMGFTSPYSGVSNYNQKFKGRVTMTRDTSTSTVYMELSSLRSEDTAVYYCARFDCYDRGYVRDYWGQGTLVTVS VL: DIVMTQSPDSLAVSLGERATINCRASESVDNDRISFLNWYQQKPGQPPKLLIYAATKQGTGVPDRFSGSGSGTDFTLTISSLQAEDVAVYYCQQSKEFPWSFGGGTKVEIKR
2 | 0.22 A450 | 6G heavy chain mutant variant 9E (N101R) (antibody, V domains shown) VH: QVQLVQSGAEVKKPGASVKVSCKASGYTFTTYAIHWVRQAPGQGLEWMGFTSPYSGVSNYNQKFKGRVTMTRDTSTSTVYMELSSLRSEDTAVYYCARFDRYDRGYVRDYWGQGTLVTVS VL: DIVMTQSPDSLAVSLGERATINCRASESVDNDRISFLNWYQQKPGQPPKLLIYAATKQGTGVPDRFSGSGSGTDFTLTISSLQAEDVAVYYCQQSKEFPWSFGGGTKVEIKR
